Laboratory results reported in paper PMC11610669, “A Spectroscopic Study on the Amyloid‐β Interaction with Clicked Peptide‐Porphyrin Conjugates: a Vision Toward the Detection of Aβ Peptides in Aqueous Solution” (Chembiochem, 2024).

Target: T1, Amyloid-β 42 peptide (UniProt P05067 672-713)
T1 construct: Amyloid-β peptide 1-42 (Aβ42), the cut product of the amyloid precursor protein; numbers count on: the Aβ peptide; For GCI it was immobilised on a polycarboxylate chip from Na acetate pH 4.5; also called Aβ42; Aβ
Assay: grating-coupled interferometry (GCI); Creoptix WAVE; Aβ42 immobilised on a 4PCH chip (1910±40 pg/mm^2); analytes injected as single-cycle 1:2 dilution series in PBS, 0.005 % Tween 20, 1 % DMSO, 0.2 mg/ml BSA; 25 °C; 100 μl/min; mass transport binding model with bulk correction
Conditions: both partners purified

T1 sequence (P05067 672-713): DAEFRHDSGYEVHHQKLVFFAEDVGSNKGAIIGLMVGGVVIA

Row | Binder | Kd | koff | kon
1 | Ac-GKPGKLVFF-NH2 (not fully specified (residue 2), designed N-terminal stretch of Ac-GK(N3)PGKLVFF-NH2; the K is the azidolysine that carries the porphyrin; hydrophobic core Aβ16-20 (KLVFF) of amyloid-β; numbers count on: the Aβ peptide; MALDI-TOF (M+H)+ 1876.12; calcd. for C103H121N22O13 1875.24; Structure drawn in Scheme 1 and Scheme 3; source: synthetic peptide (MW-SPPS), clicked on resin to Pra-OMe (CuAAC), porphyrin coupled on resin, cleaved …) [unmetalated porphyrin-peptide conjugate Ph-Pep] | 60 ± 1 µM | 0.0819 s⁻¹ | 1370 M⁻¹ s⁻¹
2 | Ac-GKPGKLVFF-NH2 (not fully specified (residue 2); also: porphyrin as Cu(II) complex, designed N-terminal stretch of Ac-GK(N3)PGKLVFF-NH2; the K is the azidolysine that carries the porphyrin; hydrophobic core Aβ16-20 (KLVFF) of amyloid-β; numbers count on: the Aβ peptide; MALDI-TOF (M+H)+ 1937.73; calcd. for C103H118CuN22O13 1936.77; Structure drawn in Scheme 1; source: synthetic peptide (MW-SPPS), clicked in solution to Cu-Ph-Pra-OMe (CuAAC), purified by preparative HPLC) [copper porphyrin-peptide conjugate Cu-Ph-Pep] | 44 ± 6 µM | 0.0931 s⁻¹ | 2100 M⁻¹ s⁻¹
3 | Ac-GKPGKLVFF-NH2 (not fully specified (residue 2); also: porphyrin as Zn(II) complex, designed N-terminal stretch of Ac-GK(N3)PGKLVFF-NH2; the K is the azidolysine that carries the porphyrin; hydrophobic core Aβ16-20 (KLVFF) of amyloid-β; numbers count on: the Aβ peptide; MALDI-TOF (M+H)+ 1939.43; calcd. for C103H119ZnN22O13 1938.60; Structure drawn in Scheme 1 and Scheme 3; source: synthetic: Ph-Pep metalated with Zn(CH3COO)2, purified by RP-HPLC) [zinc porphyrin-peptide conjugate Zn-Ph-Pep] | 46 ± 6 µM | 0.002 s⁻¹ | 110 M⁻¹ s⁻¹
